Experimental data taken from paper PMC2150872 (The Journal of Cell Biology, 2001).

T1: wt K5–K14 filaments (human, UniProt P13647 1-590; P02533 1-472)
T1 sequence (looked up) 1: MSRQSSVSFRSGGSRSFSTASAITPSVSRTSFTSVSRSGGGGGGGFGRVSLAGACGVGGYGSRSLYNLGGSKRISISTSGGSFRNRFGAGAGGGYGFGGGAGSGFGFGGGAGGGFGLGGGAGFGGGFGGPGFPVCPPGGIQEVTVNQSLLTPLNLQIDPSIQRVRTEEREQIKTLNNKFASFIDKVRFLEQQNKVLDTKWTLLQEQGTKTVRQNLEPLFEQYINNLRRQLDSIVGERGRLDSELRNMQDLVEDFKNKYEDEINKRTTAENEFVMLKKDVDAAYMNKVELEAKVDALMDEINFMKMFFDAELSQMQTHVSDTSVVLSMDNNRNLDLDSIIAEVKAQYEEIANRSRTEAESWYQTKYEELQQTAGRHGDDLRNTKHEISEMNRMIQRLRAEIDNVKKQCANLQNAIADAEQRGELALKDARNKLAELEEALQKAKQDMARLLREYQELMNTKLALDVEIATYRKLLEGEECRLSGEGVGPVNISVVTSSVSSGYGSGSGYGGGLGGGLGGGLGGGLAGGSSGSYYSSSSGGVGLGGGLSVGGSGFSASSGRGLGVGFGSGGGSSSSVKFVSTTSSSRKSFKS
T1 sequence (looked up) 2: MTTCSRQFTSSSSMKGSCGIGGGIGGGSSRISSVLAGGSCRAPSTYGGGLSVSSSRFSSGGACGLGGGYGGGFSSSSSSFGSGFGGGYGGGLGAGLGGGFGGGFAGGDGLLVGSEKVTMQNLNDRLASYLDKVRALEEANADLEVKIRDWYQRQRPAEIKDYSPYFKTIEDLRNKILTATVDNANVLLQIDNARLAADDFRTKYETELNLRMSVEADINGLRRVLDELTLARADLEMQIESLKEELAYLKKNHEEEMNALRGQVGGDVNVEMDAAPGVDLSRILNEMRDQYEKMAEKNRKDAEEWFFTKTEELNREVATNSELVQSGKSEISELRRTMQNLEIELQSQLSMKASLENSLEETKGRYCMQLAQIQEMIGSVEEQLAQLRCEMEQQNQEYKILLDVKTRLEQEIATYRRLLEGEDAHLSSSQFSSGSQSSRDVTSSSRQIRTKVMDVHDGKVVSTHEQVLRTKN

T2: keratin 5 (human, UniProt P13647 1-590)
T2 sequence (looked up): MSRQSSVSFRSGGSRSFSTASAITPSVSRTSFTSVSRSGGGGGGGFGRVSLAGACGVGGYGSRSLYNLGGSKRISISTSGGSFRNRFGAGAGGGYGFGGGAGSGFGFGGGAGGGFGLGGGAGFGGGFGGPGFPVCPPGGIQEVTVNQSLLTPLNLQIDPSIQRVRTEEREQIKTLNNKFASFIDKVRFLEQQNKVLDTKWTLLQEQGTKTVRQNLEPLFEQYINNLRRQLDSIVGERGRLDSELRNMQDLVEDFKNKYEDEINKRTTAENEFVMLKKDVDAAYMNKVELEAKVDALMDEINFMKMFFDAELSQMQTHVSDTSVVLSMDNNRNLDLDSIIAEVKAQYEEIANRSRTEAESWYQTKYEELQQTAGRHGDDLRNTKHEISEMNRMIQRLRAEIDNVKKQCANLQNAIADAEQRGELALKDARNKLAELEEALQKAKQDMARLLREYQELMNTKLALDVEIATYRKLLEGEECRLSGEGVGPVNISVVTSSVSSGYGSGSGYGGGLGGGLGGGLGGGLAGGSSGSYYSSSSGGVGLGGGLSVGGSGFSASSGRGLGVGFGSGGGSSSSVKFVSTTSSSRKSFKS


Assays:
wt K5–K14 filaments = target: T1, wt K5–K14 filaments; experiment: co-sedimentation
keratin 5 = target: T2, keratin 5; experiment: filament reconstitution

Kd (wt K5–K14 filaments) [µM]	binding result (keratin 5)	Binder
~2		SSSQFSSGSQSSRDVTSSSRQIRTKVMDVHDGKVVSTHEQVLRTKN (domain or fragment) [His-T14 (His-tagged nonhelical tail domain of human keratin 14)]
	binds	keratin 19 (natural protein, human, UniProt P08727 1-400, looked up) MTSYSYRQSSATSSFGGLGGGSVRFGPGVAFRAPSIHGGSGGRGVSVSSARFVSSSSSGAYGGGYGGVLTASDGLLAGNEKLTMQNLNDRLASYLDKVRALEAANGELEVKIRDWYQKQGPGPSRDYSHYYTTIQDLRDKILGATIENSRIVLQIDNARLAADDFRTKFETEQALRMSVEADINGLRRVLDELTLARTDLEMQIEGLKEELAYLKKNHEEEISTLRGQVGGQVSVEVDSAPGTDLAKILSDMRSQYEVMAEQNRKDAEAWFTSRTEELNREVAGHTEQLQMSRSEVTDLRRTLQGLEIELQSQLSMKAALEDTLAETEARFGAQLAHIQALISGIEAQLGDVRADSERQNQEYQRLMDIKSRLEQEIATYRSLLEGQEDHYNNLSASKVL
